B1: Neuropilin-1 (Mus musculus), P97333 (parent)
chain: MERGLPLLCATLALALALAGAFRSDKCGGTIKIENPGYLTSPGYPHSYHPSEKCEWLIQAPEPYQRIMINFNPHFDLEDRDCKYDYVEVIDGENEGGRLWGKFCGKIAPSPVVSSGPFLFIKFVSDYETHGAGFSIRYEIFKRGPECSQNYTAPTGVIKSPGFPEKYPNSLECTYIIFAPKMSEIILEFESFDLEQDSNPPGGMFCRYDRLEIWDGFPEVGPHIGRYCGQKTPGRIRSSSGVLSMVFYTDSAIAKEGFSANYSVLQSSISEDFKCMEALGMESGEIHSDQITASSQYGTNWSVERSRLNYPENGWTPGEDSYKEWIQVDLGLLRFVTAVGTQGAISKETKKKYYVKTYRVDISSNGEDWISLKEGNKAIIFQGNTNPTDVVLGVFSKPLITRFVRIKPVSWETGISMRFEVYGCKITDYPCSGMLGMVSGLISDSQITASNQADRNWMPENIRLVTSRTGWALPPSPHPYTNEWLQVDLGDEKIVRGVIIQGGKHRENKVFMRKFKIAYSNNGSDWKTIMDDSKRKAKSFEGNNNYDTPELRTFSPLSTRFIRIYPERATHSGLGLRMELLGCEVEAPTAGPTTPNGNPVDECDDDQANCHSGTGDDFQLTGGTTVLATEKPTIIDSTIQSEFPTYGFNCEFGWGSHKTFCHWEHDSHAQLRWSVLTSKTGPIQDHTGDGNFIYSQADENQKGKVARLVSPVVYSQSSAHCMTFWYHMSGSHVGTLRVKLRYQKPEEYDQLVWMVVGHQGDHWKEGRVLLHKSLKLYQVIFEGEIGKGNLGGIAVDDISINNHISQEDCAKPTDLDKKNTEIKIDETGSTPGYEGEGEGDKNISRKPGNVLKTLDPILITIIAMSALGVLLGAVCGVVLYCACWHNGMSERNLSALENYNFELVDGVKLKKDKLNPQSNYSEA
B2: Plexin-A4 (Mus musculus), Q80UG2 (parent)
chain: MKAMPWNWTCLLSHLLVVGMGSSTLLPRQPPQLSQKPSFVTFRGEPAEGFNHLVVDERTGHIYLGAVNRIYKLSSDLKVLVTHQTGPDEDNPKCYPPRIVQTCNEPLASTNNVNKMLLIDYKENRLIACGSLYQGICKLLRLEDLFKLGEPFHKKEHYLSGVNESGSVFGVIVSYSNFDDKLFIATAVDGKPEYFPTISSRKLTKNSEADGMFAYVFHDEFVASMIKIPSDTFTVIPDFDIYYVYGFSSGNFVYFLTLQPEMVSPPGSTTKEQVYTSKLVRLCKEDTAFNSYVEVPIGCERNGVEYRLLQAAYLSKAGAVLGRTLGVRPDDDLLFTVFSKGQKRKMKSLDESALCIFILKQINDRIKDRLQSCYRGEGTLDLAWLKVKDIPCSSALLTIDDNFCGLDMNAPLGVSEMVRGIPVFTEDRDRMTSVIAYVYKNHSLAFVGTKSGKLKKIRVDGPKGNALQYETVQVVDSGPVLRDMAFSKDHEQLYIMSERQLTRVPVESCGQYRSCGECLGSGDPHCGWCVLHNTCTRKERCERSREPRRFASEMKQCVRLTVHPNNISVSQYNVLLVLETYNVPELSAGVNCTFEDLSEMDGLVIGNQIQCYSPAAKEVPRIITENGDHHVVQLQLKSKETGMTFASTSFVFYNCSVHNSCLSCVESPYRCHWCKYRHVCTHDPNTCSFQEGRVKLPEDCPQLLRVDKILVPVEVIKPITLKAKNLPQPQSGQRGYECILNIQGIEQRVPALRFNSSSVQCQNTSYSYEGMEINNLPVELTVVWNGHFNIDNPAQNKVYLYKCGAMRESCGLCLKADPDFECGWCQSPGQCTLRQHCPAHESRWLELSGANSKCTNPRITEIIPVTGPREGGTKVTIRGENLGLEFRDIASHVKVAGVECSPLVDGYIPAEQIVCEMGEAKPSQHAGFVEICVAVCRPEFMARSSQLYYFMTLTLADLKPNRGPMSGGTQVTITGTNLNAGSNVVVMFGSQPCLFHRRSPSYIICNTTSSEEVLDMKVTVQVDRARIRQDLVFQYVEDPTIVRIEPEWSIVSGNTPIAVWGTHLDLIQNPQIRAKHGGKEHINICEVLNATEMTCQAPALALGPDHQSDLTERPEEFGFILDNVQSLLILNKTNFTYYPNPVFEAFSPSGILELKPGTPIILKGKNLIPPVAGGNVKLNYTVLVGEKPCTVTVSDVQLLCESPNLIGRHKVMARVGGMEYSPGMVYIAPDSPLSLPAIVSIAVAGGLLIIFIVAVLIAYKRKSRESDLTLKRLQMQMDNLESRVALECKEAFAELQTDIHELTSDLDGAGIPFLDYRTYTMRVLFPGIEDHPVLRDLEVPGYRQERVEKGLKLFAQLINNKVFLLSFIRTLESQRSFSMRDRGNVASLIMTVLQSKLEYATDVLKQLLADLIDKNLESKNHPKLLLRRTESVAEKMLTNWFTFLLYKFLKECAGEPLFSLFCAIKQQMEKGPIDAITGEARYSLSEDKLIRQQIEYKTLVLSCVSPDNVNSPEVPVKILNCDTITQVKEKILDAIFKNVPCSHRPKAADMDLEWRQGSGARMILQDEDITTKIENDWKRLNTVAHYQVPDGSVVALVSKQVTAYNAVNNSTVSRTSASKYENMIRYTGSPDSLRSRTPMITPDLESGVKLWHLVKNHEHGDQKEGDRGSKMVSEIYLTRLLATKGTLQKFVDDLFETIFSTAHRGSALPLAIKYMFDFLDEQADKHGIHDPHVRHTWKSNCLPLRFWVNMIKNPQFVFDIHKNSITDACLSVVAQTFMDSCSTSEHRLGKDSPSNKLLYAKDIPSYKNWVERYYSDIGKMPAISDQDMNAYLAEQSRMHMNEFNTMSALSEIFSYVGKYSEEILGPLDHDDQCGKQKLAYKLEQVITLMSLDS

Variants of: B1
Details: with plxa4_mouse Plxna4, Q80UG2

Variant | effect of a mutation on the interaction
H74A | with no effect
S251E | with no effect
A252E | with no effect
E128R | with no effect

Variants of: B2
Details: with nrp1_mouse Nrp1, P97333

Variant | effect of a mutation on the interaction
K343E | with no effect

Reference: IntAct's records for PubMed 34039996
